In PMC3121799, “Mechanism of Heparin Acceleration of Tissue Inhibitor of Metalloproteases-1 (TIMP-1) Degradation by the Human Neutrophil Elastase” (PLoS ONE, 2011):
Square brackets hold non-standard residues; d marks the D form. Ends that are not written are not given here. * marks the point of attachment. EDDnp = O=[N+]([O-])c1ccc(NCCN*)c([N+](=O)[O-])c1; 2Abz = Nc1ccccc1C(=O)O

Legend:
[1] = biological target: His57 (UniProt position 70, VMSAAHCVANV); experiment: kinetics; details: 37 °C, Constant ionic strength buffer system containing 140 mM NaCl, 25 mM glycine, 25 mM acetic acid, 25 mM Mes, 75 mM Tris, 0.05% (v/v) Triton X-100, pH adjusted with HCl or NaOH
[2] = system: Nterm16; experiment: kinetics; details: 37 °C, Constant ionic strength buffer system containing 140 mM NaCl, 25 mM glycine, 25 mM acetic acid, 25 mM Mes, 75 mM Tris, 0.05% (v/v) Triton X-100, pH adjusted with HCl or NaOH
[3] = biological target: T1, Human neutrophil elastase (human, UniProt P08246 30-267); experiment: stopped-flow fluorescence kinetics of substrate hydrolysis (pre-steady-state, fit to a three-step mechanism with DynaFit IV); both in solution; 3.8 µM FRET-peptide, 12.6 nM HNE, 25°C, 10 mM Tris-HCl pH 7.4, 100 mM NaCl, no heparin; details: both partners purified
[4] = biological target: T1, Human neutrophil elastase; experiment: stopped-flow fluorescence kinetics of substrate hydrolysis (pre-steady-state, fit to a three-step mechanism with DynaFit IV); both in solution; 3.8 µM FRET-peptide, 12.6 nM HNE (12.7 nM in the methods), 25°C, 10 mM Tris-HCl pH 7.4, 100 mM NaCl, with 50 µM heparin; details: both partners purified
[5] = Free enzyme, no heparin (control)
[6] = Heparin-bound enzyme (50 µM 14 kDa heparin)

T1 sequence (P08246 30-267): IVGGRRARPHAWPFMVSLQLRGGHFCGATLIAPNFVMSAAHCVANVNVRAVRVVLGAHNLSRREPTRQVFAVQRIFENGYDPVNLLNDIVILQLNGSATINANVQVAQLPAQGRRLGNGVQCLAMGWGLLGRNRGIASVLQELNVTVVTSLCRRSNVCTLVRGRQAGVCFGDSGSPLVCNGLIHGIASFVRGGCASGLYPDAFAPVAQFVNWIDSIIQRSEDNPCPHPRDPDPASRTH

koff [3] [s⁻¹]	kon [3] [M⁻¹ s⁻¹]	koff [4] [s⁻¹]	kon [4] [M⁻¹ s⁻¹]	Molecule	pKa [1, 5]	pKa [1, 6]	pKa [2, 5]	pKa [2, 6]
				Human neutrophil elastase (HNE; leukocyte elastase, EC 3.4.21.37) (Homo sapiens)	6.71±0.05	7.04±0.07	8.93±0.05	9.60±0.07
0.25	350000	0.081	820000	[2Abz]AMESVMGYFHRSQ-EDDnp (the peptide has Met where TIMP-1 has Cys70 (cleaved bond Val-Met); also called FRET-peptide substrate; FRET substrate; source: synthetic peptide (solid phase, Fmoc; HPLC purified)) [FRET-peptide Abz-AMESVMGYFHRSQ-EDDnp]				
